# Key:
# [1] = target: T1, FZD3 cysteine-rich domain (CRD), MYC-tagged and GPI-anchored on CHO cells (human, UniProt Q9NPG1 24-150, GPI anchor); assay: flow cytometry on CHO-GPI cells over-expressing the Frizzled CRD;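 note: binding of recombinant anti-Frizzled Fabs to the cells, read as fold mean fluorescence intensity above secondary-antibody-only background and normalized to control CHO-GPI cells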
# T1 construct: domain: cysteine-rich domain (CRD); also called FZD3 CRD; CHO-myc-FZDGPI; not shown: MYC tag and GPI anchor signal
# T1 sequence (looked up): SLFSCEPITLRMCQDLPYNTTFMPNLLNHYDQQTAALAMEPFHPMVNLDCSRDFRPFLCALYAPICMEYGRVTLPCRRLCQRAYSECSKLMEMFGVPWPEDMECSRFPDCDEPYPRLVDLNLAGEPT
# [2] = target: T2, FZD5 cysteine-rich domain (CRD), MYC-tagged and GPI-anchored on CHO cells (human, UniProt Q13467 29-156, GPI anchor); assay: as above
# T2 construct: also called FZD5 CRD; CHO-myc-FZDGPI; not shown: MYC tag and GPI anchor signal
# T2 sequence: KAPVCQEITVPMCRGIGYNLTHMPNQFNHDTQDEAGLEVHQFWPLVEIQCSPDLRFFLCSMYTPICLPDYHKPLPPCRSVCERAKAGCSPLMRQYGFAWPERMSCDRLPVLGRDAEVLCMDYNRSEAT
# [3] = target: T3, FZD10 cysteine-rich domain (CRD), MYC-tagged and GPI-anchored on CHO cells (human, UniProt Q9ULW2 30-156, GPI anchor); assay: as above
# T3 construct: also called FZD10 CRD; CHO-myc-FZDGPI; not shown: MYC tag and GPI anchor signal
# T3 sequence: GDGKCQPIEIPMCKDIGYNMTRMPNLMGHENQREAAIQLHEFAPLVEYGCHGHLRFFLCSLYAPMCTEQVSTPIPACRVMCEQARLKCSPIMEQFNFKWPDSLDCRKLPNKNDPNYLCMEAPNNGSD
# [4] = target: T4, FZD4 cysteine-rich domain (CRD), MYC-tagged and GPI-anchored on CHO cells (human, UniProt Q9ULV1 42-167, GPI anchor); assay: as above
# T4 construct: also called FZD4 CRD; CHO-myc-FZDGPI; not shown: MYC tag and GPI anchor signal
# T4 sequence: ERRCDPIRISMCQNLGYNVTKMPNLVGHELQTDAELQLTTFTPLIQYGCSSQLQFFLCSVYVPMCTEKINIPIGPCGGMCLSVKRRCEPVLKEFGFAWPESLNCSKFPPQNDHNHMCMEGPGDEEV
# [5] = target: T5, FZD6 cysteine-rich domain (CRD), MYC-tagged and GPI-anchored on CHO cells (human, UniProt O60353 20-146, GPI anchor); assay: as above
# T5 construct: also called FZD6 CRD; CHO-myc-FZDGPI; not shown: MYC tag and GPI anchor signal
# T5 sequence: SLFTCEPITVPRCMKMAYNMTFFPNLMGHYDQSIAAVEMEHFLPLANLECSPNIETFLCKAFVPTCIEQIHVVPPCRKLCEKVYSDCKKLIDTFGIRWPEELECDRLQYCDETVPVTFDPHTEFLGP
# [6] = target: T6, FZD9 cysteine-rich domain (CRD), MYC-tagged and GPI-anchored on CHO cells (human, UniProt O00144 35-161, GPI anchor); assay: as above
# T6 construct: also called FZD9 CRD; CHO-myc-FZDGPI; not shown: MYC tag and GPI anchor signal
# T6 sequence: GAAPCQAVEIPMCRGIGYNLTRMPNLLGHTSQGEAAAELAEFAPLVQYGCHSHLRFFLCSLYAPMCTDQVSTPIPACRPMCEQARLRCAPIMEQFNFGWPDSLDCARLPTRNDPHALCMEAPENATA
# [7] = target: T7, FZD7 cysteine-rich domain (CRD), MYC-tagged and GPI-anchored on CHO cells (human, UniProt O75084 45-169); assay: as above
# [8] = target: T1, FZD3 cysteine-rich domain (CRD), …; assay: flow cytometry, CHO-CRD cells;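 note: flow cytometry of Fab binding to CHO cells overexpressing a Frizzled CRD, with binding defined as median fluorescence over twice that of CHO cells lacking any Frizzled CRD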
# [9] = target: T2, FZD5 cysteine-rich domain (CRD), …; assay: flow cytometry, CHO-CRD cells;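 note: flow cytometry of Fab binding to CHO cells overexpressing a Frizzled CRD, with binding defined as median fluorescence over twice that of CHO cells lacking any Frizzled CRD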
# [10] = target: T3, FZD10 cysteine-rich domain (CRD), …; assay: flow cytometry, CHO-CRD cells;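 note: flow cytometry of Fab binding to CHO cells overexpressing a Frizzled CRD, with binding defined as median fluorescence over twice that of CHO cells lacking any Frizzled CRD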
# [11] = target: T4, FZD4 cysteine-rich domain (CRD), …; assay: flow cytometry, CHO-CRD cells;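 note: flow cytometry of Fab binding to CHO cells overexpressing a Frizzled CRD, with binding defined as median fluorescence over twice that of CHO cells lacking any Frizzled CRD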
# [12] = target: T5, FZD6 cysteine-rich domain (CRD), …; assay: flow cytometry, CHO-CRD cells
# [13] = target: T6, FZD9 cysteine-rich domain (CRD), …; assay: flow cytometry, CHO-CRD cells
# [14] = target: T7, FZD7 cysteine-rich domain (CRD), …; assay: flow cytometry, CHO-CRD cells
# [15] = target: T8, FZD8 cysteine-rich domain (CRD), MYC-tagged and GPI-anchored on CHO cells (human, UniProt Q498S8 31-155 (rat entry), GPI anchor); assay: flow cytometry on CHO-GPI cells over-expressing the Frizzled CRD;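 note: binding of recombinant anti-Frizzled Fabs to the cells, read as fold mean fluorescence intensity above secondary-antibody-only background and normalized to control CHO-GPI cells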
# T8 construct: also called FZD8 CRD; CHO-myc-FZDGPI; not shown: MYC tag and GPI anchor signal
# T8 sequence: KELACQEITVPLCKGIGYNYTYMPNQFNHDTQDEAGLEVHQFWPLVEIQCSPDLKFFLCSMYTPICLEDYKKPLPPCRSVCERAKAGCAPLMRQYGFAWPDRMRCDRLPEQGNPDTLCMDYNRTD
# [16] = target: T9, FZD1 cysteine-rich domain (CRD), MYC-tagged and GPI-anchored on CHO cells (human); assay: as above
# [17] = target: T10, FZD2 cysteine-rich domain (CRD), MYC-tagged and GPI-anchored on CHO cells (human, UniProt Q14332 35-161); assay: as above
# [18] = target: T8, FZD8 cysteine-rich domain (CRD), …; assay: flow cytometry, CHO-CRD cells
# [19] = target: T9, FZD1 cysteine-rich domain (CRD), …; assay: flow cytometry, CHO-CRD cells
# [20] = target: T10, FZD2 cysteine-rich domain (CRD), …; assay: flow cytometry, CHO-CRD cells
# FZD8-Fc = target: T11, FZD8-Fc (UniProt Q9H461 28-158, limits assumed); assay: SPR, Frizzled-Fc chimera;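 note: binding targets are Fc fusions carrying an extracellular Frizzled fragment that contains the CRD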
# T11 construct: extracellular domain; also called Frizzled-Fc chimera (FZD8); not shown: Fc part
# T11 sequence (looked up): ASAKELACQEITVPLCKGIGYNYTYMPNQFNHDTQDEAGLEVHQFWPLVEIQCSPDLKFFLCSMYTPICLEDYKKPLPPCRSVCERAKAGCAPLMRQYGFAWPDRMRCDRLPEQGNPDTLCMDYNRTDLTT
# FZD7-Fc = FZD7-Fc (UniProt O75084 33-185); assay: SPR, Frizzled-Fc chimera;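 note: binding targets are Fc fusions carrying an extracellular Frizzled fragment that contains the CRD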
# FZD2-Fc = target: T12, FZD2-Fc (UniProt Q14332 24-190, limits assumed); assay: SPR, Frizzled-Fc chimera;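 note: binding targets are Fc fusions carrying an extracellular Frizzled fragment that contains the CRD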
# T12 construct: extracellular domain; also called Frizzled-Fc chimera (FZD2); not shown: Fc part
# FZD1-Fc = target: T13, FZD1-Fc (UniProt Q9UP38 73-250, limits assumed); assay: SPR, Frizzled-Fc chimera;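 note: binding targets are Fc fusions carrying an extracellular Frizzled fragment that contains the CRD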
# T13 construct: extracellular domain; also called Frizzled-Fc chimera (FZD1); not shown: Fc part
# T13 sequence (Q9UP38 73-250 limits assumed): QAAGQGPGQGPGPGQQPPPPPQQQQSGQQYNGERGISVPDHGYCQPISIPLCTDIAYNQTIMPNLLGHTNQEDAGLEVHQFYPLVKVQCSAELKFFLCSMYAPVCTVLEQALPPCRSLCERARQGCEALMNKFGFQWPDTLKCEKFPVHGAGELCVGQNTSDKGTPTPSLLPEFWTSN
# [21] = target: T14, recombinant human FZD5-Fc chimera (R&D Systems, Catalog no. 1617-FZ) (human, UniProt Q13467 27-167); assay: SPR, Frizzled-Fc chimera
# T14 construct: used for selection and ELISA; Fc part of the bought chimera not given
# T14 sequence: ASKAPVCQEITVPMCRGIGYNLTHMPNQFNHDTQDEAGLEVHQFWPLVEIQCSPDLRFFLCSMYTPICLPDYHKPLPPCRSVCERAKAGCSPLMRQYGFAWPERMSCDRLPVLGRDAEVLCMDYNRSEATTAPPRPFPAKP
Binder,binding result [1],"fold-increase in mean fluorescence intensity over background (secondary antibody alone), normalized to control CHO-GPI [2] [fold]",binding result [3],binding result [4],binding result [5],binding result [6],binding result [7],median fluorescence [8],median fluorescence [9],median fluorescence [10],median fluorescence [11],median fluorescence [12],median fluorescence [13],median fluorescence [14],other results
"Fab-2928 (Fab, V domains shown, Fab; also called Fv-2928) VH: EVQLVESGGGLVQPGGSLRLSCAASGFNISYSSIHWVRQAPGKGLEWVASIYPSYSSTYYADSVKGRFTISADTSKNTAYLQMNSLRAEDTAVYYCARYYAMDYWGQGTLVTVSS VL: DIQMTQSPSSLSASVGDRVTITCRASQSVSSAVAWYQQKPGKAPKLLIYSASSLYSGVPSRFSGSRSGTDFTLTISSLQPEDFATYYCQQAFYYPITFGQGTKVEIK",no binding (tested: 200 nM),13,no binding (tested: 200 nM),no binding (tested: 200 nM),no binding (tested: 200 nM),no binding (tested: 200 nM),no binding (tested: 200 nM),4.37,42.9,3.96,5.19,3.08,4.49,5.94,
"Fab-2919 (Fab, V domains shown, Fab) VH: EVQLVESGGGLVQPGGSLRLSCAASGFNISYSYIHWVRQAPGKGLEWVASIYSSSGSTSYADSVKGRFTISADTSKNTAYLQMNSLRAEDTAVYYCARGAIDYWGQGTLVTVSS VL: DIQMTQSPSSLSASVGDRVTITCRASQSVSSAVAWYQQKPGKAPKLLIYSASSLYSGVPSRFSGSRSGTDFTLTISSLQPEDFATYYCQQWYSSGHVLITFGQGTKVEIK",no binding (tested: 200 nM),19.2,no binding (tested: 200 nM),no binding (tested: 200 nM),no binding (tested: 200 nM),no binding (tested: 200 nM),no binding (tested: 200 nM),3.96,43.7,2.48,3.79,2.64,2.79,2.41,"fold-increase in mean fluorescence intensity over background (secondary antibody alone), normalized to control CHO-GPI [15]: 14.4 fold; binding result [16]: no binding (tested: 200 nM); binding result [17]: no binding (tested: 200 nM); median fluorescence [18]: 20.5; median fluorescence [19]: 3.52; median fluorescence [20]: 4.26"
"IgG-2916 (antibody, V domains shown) VH: EVQLVESGGGLVQPGGSLRLSCAASGFNISYSSIHWVRQAPGKGLEWVASIYPSYSYTYYADSVKGRFTISADTSKNTAYLQMNSLRAEDTAVYYCARYGYYGMDYWGQGTLVTVSS VL: DIQMTQSPSSLSASVGDRVTITCRASQSVSSAVAWYQQKPGKAPKLLIYSASSLYSGVPSRFSGSRSGTDFTLTISSLQPEDFATYYCQQWYHYPYLITFGQGTKVEIK",,,,,,,,,,,,,,,Kd (FZD8-Fc): 0.0455 nM; koff (FZD8-Fc): 4.75e-05 s⁻¹; kon (FZD8-Fc): 1.04e+06 M⁻¹ s⁻¹; Kd (FZD7-Fc): 0.496 nM; koff (FZD7-Fc): 0.000382 s⁻¹; kon (FZD7-Fc): 770000 M⁻¹ s⁻¹; Kd (FZD2-Fc): 0.905 nM; koff (FZD2-Fc): 0.000452 s⁻¹; kon (FZD2-Fc): 500000 M⁻¹ s⁻¹; Kd (FZD1-Fc): 1.24 nM; koff (FZD1-Fc): 0.000451 s⁻¹; kon (FZD1-Fc): 364000 M⁻¹ s⁻¹; Kd [21]: 0.00988 nM; koff [21]: 1.3e-05 s⁻¹; kon [21]: 1.32e+06 M⁻¹ s⁻¹

# Reference: patent US20210253718A1 (MODMAB THERAPEUTICS, published 2021)
